Results: PMC10362797, “Phosphorylation of USP20 on Ser334 by IRAK1 promotes IL-1β-evoked signaling in vascular smooth muscle cells and vascular inflammation” (The Journal of Biological Chemistry, 2023)

Biological target: T1, TRAF6 (TNFR-associated factor 6), endogenous (mouse (endogenous in mouse SMCs), UniProt P70196 1-530)
T1 construct: TRAF6, E3 ubiquitin ligase, endogenously expressed in mouse aortic smooth muscle cells; source: endogenous, mouse SMC lysate
T1 sequence (looked up): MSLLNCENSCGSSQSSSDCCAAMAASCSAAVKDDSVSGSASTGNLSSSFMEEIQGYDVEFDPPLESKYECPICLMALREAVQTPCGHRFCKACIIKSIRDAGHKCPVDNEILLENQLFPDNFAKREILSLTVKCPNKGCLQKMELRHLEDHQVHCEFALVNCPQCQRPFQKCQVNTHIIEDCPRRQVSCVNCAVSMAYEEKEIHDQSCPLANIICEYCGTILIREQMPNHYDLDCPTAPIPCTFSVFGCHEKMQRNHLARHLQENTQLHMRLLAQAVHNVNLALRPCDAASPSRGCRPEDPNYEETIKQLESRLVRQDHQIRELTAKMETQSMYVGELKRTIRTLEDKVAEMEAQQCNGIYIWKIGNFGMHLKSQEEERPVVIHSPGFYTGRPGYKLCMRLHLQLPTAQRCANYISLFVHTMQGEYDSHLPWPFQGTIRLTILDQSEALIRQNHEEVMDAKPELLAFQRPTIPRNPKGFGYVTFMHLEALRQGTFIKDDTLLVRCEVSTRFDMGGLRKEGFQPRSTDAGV
Experiment: co-IP; endogenous TRAF6 immunoprecipitated with anti-TRAF6(D-10) agarose overnight at 4 °C from lysates of mouse SMCs transduced with HA-USP20, serum starved 1 h and stimulated with IL-1β (1 ng/ml, 20 min); lysis buffer 50 mM Hepes pH 7.5, 2 mM EDTA, 250 mM NaCl, 10% glycerol, 0.5% Nonidet P-40; immunoblot for HA
Settings: partners not purified

B1: HA-tagged USP20-S334A (mouse) (enzyme, UniProt Q8C6M1 1-916, looked up)
chain: MGDARDLCPHLDCIGEVTKEDLLLKSKGTCQSCGVAGPNLWACLQVTCPYVGCGESFADHSSIHAQVKKHNLTVNLTTFRVWCYACEREVFLEQRLAVHLASSSARLSEQDSPPPSHPLKAVPIAVADEGESESEDDDLKPRGLTGMKNLGNSCYMNAALQALSNCPPLTQFFLECGGLVRTDKKPALCKSYQKLISEVWHKKRPSYVVPTSLSHGIKLVNPMFRGYAQQDTQEFLRCLMDQLHEELKEPMVAAVAALTDARDSDSSDTDERRDGDRSPSEDEFLSCDSSSDRGEGDGQGRGGGSSKAEMELLISDEAGRAISEKERMKDRKFAWGQQRTNSEQVDEDADVDTAMASLDEQSREAQPPSPRSTSPCQTPEPDNEAHIRSSSRPCSPVHHHHEGHSKLSSSPPRASPVRMGPSYVLKKAQVPSTGGRRRKEQSYRSVISDVFNGSVLSLVQCLTCDRVSTTVETFQDLSLPIPGKEDLAKLHSAIYQNVPAKPGACGDSYSSQGWLAFIVEYIRRFVVSCTPSWFWGPVVTLEDCLAAFFAADELKGDNMYSCERCKKLRNGVKYCKVLCLPEILCVHLKRFRHEVMYSFKVSSHVSFPLEGLDLRPFLAKECTSQVTTYDLLSVICHHGTAGSGHYIAYCQNVINGQWYEFDDQYVTEVHETVVQNVEAYVLFYRKSSEEAMRERQQVVSLAAMREPSLLRFYVSREWLNKFNTFAEPGPITNHTFLCSHGGIPPNKYHYIDDLVVILPQSVWEHLYSRFGGGPAVNHLYVCSICQVEIEALAKRRRVEIDTFIKLNKAFQAEESPAVIYCISMHWFREWEAFVKGKDSEPPGPIDNSRIAQVKGSGHIQLKQGADCGQISEETWTYLSSLYGGGPEIAIRQSVAQLPDPESLHGEQKIEAETRAL
notes: Mimics unphosphorylated USP20; source: mouse SMCs, transduced with recombinant adenovirus, in protein extract/lysate; not shown: HA, N-terminal, kept
- fold of USP20-WT in TRAF6 immunoprecipitates: ~2.2 fold
